Data from patent publication US20240376207A1 (JIANGSU HENGRUI PHARMACEUTICALS, published 2024).
Like-named read-outs stand apart in the source and are kept apart here.

T1: human PVRIG expressed on cells (human, UniProt Q6DKI7 41-326)
T1 sequence (looked up): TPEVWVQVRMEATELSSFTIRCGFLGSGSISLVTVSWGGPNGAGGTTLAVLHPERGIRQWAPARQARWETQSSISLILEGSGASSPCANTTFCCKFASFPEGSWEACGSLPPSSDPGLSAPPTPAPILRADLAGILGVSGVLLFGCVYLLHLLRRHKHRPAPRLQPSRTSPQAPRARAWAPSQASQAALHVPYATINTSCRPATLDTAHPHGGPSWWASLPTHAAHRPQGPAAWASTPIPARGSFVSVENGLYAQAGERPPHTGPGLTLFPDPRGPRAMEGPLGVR

T2: his-tagged human PVRIG (h-PVRIG-his) recombinant protein (human, UniProt Q6DKI7 41-171, limits assumed)
T2 construct: bought from Acrobiosystems; also called Human PVRIG-his; human PVRIG recombinant protein; not shown: his tag
T2 sequence (looked up): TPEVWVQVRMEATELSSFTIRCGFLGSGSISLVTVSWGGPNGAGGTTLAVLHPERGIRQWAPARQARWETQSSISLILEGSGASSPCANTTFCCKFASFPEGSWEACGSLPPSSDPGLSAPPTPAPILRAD

T3: his-tagged cynomolgus monkey PVRIG (cyno-PVRIG-his) recombinant protein (cynomolgus monkey)
T3 construct: expressed in HEK293, purified by Ni-NTA; also called Monkey PVRIG-his; cynomolgus monkey PVRIG recombinant protein
T3 chain: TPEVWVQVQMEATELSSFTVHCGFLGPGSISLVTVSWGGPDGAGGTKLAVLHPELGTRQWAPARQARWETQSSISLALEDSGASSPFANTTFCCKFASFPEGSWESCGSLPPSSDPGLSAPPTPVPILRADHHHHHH

T4: human TIGIT recombinant protein (human, UniProt Q495A1 22-141, limits assumed)
T4 construct: construct not described; also called human TIGT recombinant protein
T4 sequence (looked up): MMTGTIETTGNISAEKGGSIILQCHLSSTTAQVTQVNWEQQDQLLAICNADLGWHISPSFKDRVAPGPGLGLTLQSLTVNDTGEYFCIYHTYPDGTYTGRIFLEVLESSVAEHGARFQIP

T5: human PVRIG antigen (AcroBiosystem, PVG-H52H4) (human, UniProt Q6DKI7 41-171, limits assumed)
T5 sequence (looked up): T2 sequence (looked up)

B1: anti-PVRIG antibody 151 (antibody, human IgG4 S228P, F234A L235A, V domains shown)
VH: HVQLVESGGGSVQAGGSLRLSCVASASGFTYRPYCMAWFRQAPGKEREAVAGIDIFGGTTYADSVKGRFTASRDNAGFSLFLQMNDLKPEDTAMYYCAAGDSPDGRCPPLGQGLNYWGQGTQVTVSS
notes: no light chain
B2: positive antibody Tab5 (antibody, human IgG4 S228P, kappa, F234A L235A, V domains shown)
VH: EVQLVESGGGVVKPGGSLRLSCAASGFTFGTSSMNWVRQAPGKGLEWVAVISFDGTEIHYADSVKGRFTISRDNSKSTVFLQMNSLRPDDTALYYCAKGSGNIYFYSGMDVWGQGTTVTVSS
VL: DIQMTQSPSTLSASVGDRVTITCRAGQSISGWLAWFQQKPGKAPNLLIYETSTLESGVPSRFSGSGSGTEYTLTISSLQPDDFATYYCQQYYSYPLTFGQGTKVEIKR
notes: Variable regions of CPA.7.021 (WO2016134333A1) on human IgG4 (S228P/F234A/L235A/K447A) and human kappa constant regions
B3: anti-PVRIG antibody 30 (antibody, human IgG4 S228P, F234A L235A, V domains shown)
VH: HVQLVESGGGSVQAGGSLRLSCEASGYSYSGDCMGWFRRAPGKERDEGVATIDNAGRIKYADSVKGRFTISHGNGKYILYLQMNSLKPEDTDMYYCAAGWTFGGNCSPADWGQGTQVTVSS
notes: no light chain
B4: anti-PVRIG antibody 39 (antibody, human IgG4 S228P, F234A L235A, V domains shown)
VH: QVQLVESGGGSVQAGGSLRLSCAASRYTSRTDCMGWFRQAPGKEREGVAHIDSDGIPRYVESVKGRFTISQDHAKNTLYLQMNSLKPEDSATYYCVVGFKFGDYCAPNDWGQGTQVTVSS
notes: no light chain
B5: humanized anti-PVRIG/TIGIT bispecific antibody 1708-20H5 (bispecific antibody, human IgG4 S228P, kappa)
heavy: not shown
light: DIQMTQSPSSLSASVGDRVTITCRASENIYSYLAWYQQKPGKSPKLLIYNARTLAEGVPSRFSGSGSGTDFTLTISSLQPEDFATYYCQYHSGSPLPFGGGTKVEIKRTVAAPSVFIFPPSDEQLKSGTASVVCLLNNFYPREAKVQWKVDNALQSGNSQESVTEQDSKDSTYSLSSTLTLSKADYEKHKVYACEVTHQGLSSPVTKSFNRGEC
B6: humanized anti-PVRIG/TIGIT bispecific antibody 1708-30H2 (bispecific antibody, human IgG4 S228P, kappa)
heavy: not shown
light: B5 light

Legend:
[1] = molecular target: T1, human PVRIG expressed on cells; test: cell-based or functional assay
[2] = molecular target: T1, human PVRIG expressed on cells; test: cell-based or functional assay; remark: listed apart in the source
[3] = molecular target: T2, his-tagged human PVRIG (h-PVRIG-his) …; test: ELISA, coated antigen
Description: (§1) A human, cynomolgus monkey, or mouse PVRIG protein (at a concentration of 1 μg/mL) was coated on a 96-well microplate at 100 μL per well, and incubated overnight at 4° C. The plate was washed three times with wash buffer at 250 μL per well. For each wash, the plate was shaken for 10 s to ensure adequate cleaning. A blocking solution (PBS+0.05% Tween20+1% BSA) was added at 300 μL/well, and the plate was incubated at room temperature for 1 h. The plate was washed three times with wash buffer at 250 μL per well. For each wash, the plate was shaken for 10 s to ensure adequate cleaning. Dilutions of the test anti-PVRIG antibodies were added at 100 μL/well. The plate was incubated at 37° C. for 1 h. The plate was washed three times with wash buffer at 250 μL per well. The […] anti-human IgG secondary antibody (Sigma, A8667) was added at 100 μL per well. The plate was incubated at 37° C. for 1 h. The plate was washed three times with wash buffer at 250 μL per well. TMB was added at 100 μL/well, and the plate was incubated in the dark for 15 min. 0.16 M sulfuric acid was added at 50 μL/well. The OD values at 450 nm were read by using a Thermo MultiSkanFc microplate reader, and the EC₅₀ values of the binding of the anti-PVRIG antibodies to PVRIG were calculated.
(§2) Binding of the humanized anti-PVRIG/TIGIT bispecific antibodies to human and cynomolgus monkey PVRIG and their blocking of the ligand of human PVRIG were detected according to the methods of Examples 4, 5 and 6.

[4] = molecular target: T3, his-tagged cynomolgus monkey PVRIG …; test: ELISA, coated antigen
Description: as §1, §2

[5] = molecular target: T4, human TIGIT recombinant protein; test: competition ELISA; human TIGIT, competitor human PVR
Description: The h-PVRIG-mIgG2a Fc protein (at a concentration of 1 μg/mL) was coated on the 96-well microplate at 100 μL per well, and incubated overnight at 4° C. The plate was washed three times with wash buffer at 250 μL per well. For each wash, the plate was shaken for 10 s to ensure adequate cleaning. A blocking solution was added at 300 μL/well, and the plate was incubated at room temperature for 1 h. The plate was washed three times with wash buffer at 250 μL per well. For each wash, the plate was shaken for 10 s to ensure adequate cleaning. 50 μL of diluted test anti-PVRIG antibody and 50 μL of his-tagged ligand PVRL2 were added to each well, and the plate was incubated at 37° C. for 1 h. The plate was washed three times with wash buffer at 250 μL per well. The HRP-labeled anti-his-tagged secondary antibody (Genscrpit) diluted at 1:2000 was added at 100 μL per well. The plate was incubated at 37° C. for 1 h. The plate was washed three times with wash buffer at 250 μL per well. TMB was added at 100 μL/well, and the plate was incubated in the dark for 15 min. 0.16 M sulfuric acid was added at 50 μL/well. OD values at 450 nm were measured using a Thermo MμtLtiSkanFc microplate reader, and the IC₅₀ values of the anti-PVRIG antibodies blocking the binding of PVRIG to PVRL2 were calculated.
Similarly to Examples 4, 5 and 6, the binding of humanized anti-PVRIG/TIGIT bispecific antibodies to human and cynomolgus monkey TIGIT and blocking of binding of human TIGIT to ligand were detected, where PVRIG protein was replaced with TIGIT and PVRL2 was replaced with PVR.

[6] = molecular target: T5, human PVRIG antigen (AcroBiosystem, …); test: SPR (Biacore X100), antibody captured on Protein A chip, 1:1 fit
Source text: The affinity of the humanized bispecific antibodies for human PVRIG, cynomolgus monkey PVRIG and human TIGIT was detected using Biacore. Humanized bispecific antibodies were each captured on a Protein A biosensor chip (GE lifesciences, 29127557) of a Biacore instrument (Biacore X100, GE), and then human PVRIG antigen (AcroBiosystem, PVG-H52H4), cynomolgus monkey PVRIG antigen (SEQ ID NO: 1), or human TIGIT antigen (AcroBiosystem, TIT-H52H3) at a series of concentration gradients each flowed over the chip surface. The reaction signals were detected in real time using a Biacore instrument (Biacore X100, GE) to obtain association and dissociation curves. The data obtained from the experiment were fitted using the (1:1) Binding model with the BiacoreX100 evaluation software 2.0 GE to obtain affinity values (see Table 31).

Binder | NK92 killing of K562, killing activity (%), 4 nM antibody [1] [%] | NK92 killing of K562, killing activity (%), 20 nM antibody [1] [%] | NK92 killing of K562, killing activity (%), 100 nM antibody [1] [%] | NK92 killing of K562, killing activity (%), 4 nM antibody [2] [%] | NK92 killing of K562, killing activity (%), 20 nM antibody [2] [%] | NK92 killing of K562, killing activity (%), 100 nM antibody [2] [%] | EC50 [3] [nM] | IC50 [5] [nM] | EC50 [4] [nM] | Kd [6] [nM] | koff [6] [s⁻¹] | kon [6] [M⁻¹ s⁻¹] | also measured
B1 | 20.9 | 22.9 | 24.2 | – | – | – | – | – | – | – | – | – | –
B2 | – | – | – | 5.9 | 7.9 | 10 | 1.41 | – | – | – | – | – | binding result [4]: no binding
B3 | – | – | – | 10.4 | 11.9 | 13.3 | – | – | – | – | – | – | –
B4 | 21.3 | 22.7 | 22.8 | – | – | – | – | – | – | – | – | – | –
B5 | – | – | – | – | – | – | 2.47 | 1.02 | 0.144 | 0.00782 | 0.00013 | 1.67e+07 | –
B6 | – | – | – | – | – | – | 0.32 | 1.01 | 0.184 | 0.706 | 0.00912 | 1.29e+07 | –
